The record followed here is US20130011380A1 (published 2013).

Holding throughout (test): anti-Flag IP-MS, mES nuclear extract
In one assay the target is Tmpo (mouse). The source says: (§1) Mass spectrometry was used to identify the potential interactors of AID and understand the functional molecular players that orchestrate mammalian DNA demethylation. The following AID constructs were used: 1) human AID containing two tandem Flag tags at the N-terminus of the protein, cloned into the pHAGE-STEMCCA lentiviral vector, and 2) human AID containing two tandem Flag tags at the C-terminus of the protein, cloned into the pHAGE-STEMCCA lentiviral vector. Virus containing these constructs was subsequently used to infect mouse embryonic stem cells (CGR8), and stable cell lines overexpressing Flag-human AID were selected. As a control, the lentiviral vector containing only the 2× Flag tag was used.
(§2) The stable ES cell lines expressing AID and Control 2× Flag were fractionated into cytoplasmic and nuclear extracts for immunoprecipitating the AID protein using an antibody against the Flag tag. The resulting complex was subjected to mass spectrometric analyses.
(§3) TABLE 5 After immunoprecipitation, AID and the interacting proteins were identified by mass spectrometry (MS). All proteins were subjected to trypsin digestion to break them down into smaller peptides, and run through a mass spectrometer. Column C indicates the number of unique peptides of a particular protein detected by MS analysis, to be associated with the AID-Flag protein. Column D represents the number of peptides associated with the Flag only protein. The higher the number of unique peptides (>3) that are associated with AID, but not with the Flag protein, the stronger the indication of the specificity of the interaction. Columns E and F represent the associated spectra i.e. the frequency of these peptides detected in association with the AID protein as a measure of the abundance of the associated protein.

A further assay addresses T1, Tip2 (mouse).
T1 construct: Gene name as printed; possibly a misprint, not resolved
Source text: as §1, §2, §3

The target of another assay is Lmo7 (mouse, UniProt E9PYF4 24-1649).
Source text: as §1, §2, §3

Chain of Lmo7 (E9PYF4 entry or part of it): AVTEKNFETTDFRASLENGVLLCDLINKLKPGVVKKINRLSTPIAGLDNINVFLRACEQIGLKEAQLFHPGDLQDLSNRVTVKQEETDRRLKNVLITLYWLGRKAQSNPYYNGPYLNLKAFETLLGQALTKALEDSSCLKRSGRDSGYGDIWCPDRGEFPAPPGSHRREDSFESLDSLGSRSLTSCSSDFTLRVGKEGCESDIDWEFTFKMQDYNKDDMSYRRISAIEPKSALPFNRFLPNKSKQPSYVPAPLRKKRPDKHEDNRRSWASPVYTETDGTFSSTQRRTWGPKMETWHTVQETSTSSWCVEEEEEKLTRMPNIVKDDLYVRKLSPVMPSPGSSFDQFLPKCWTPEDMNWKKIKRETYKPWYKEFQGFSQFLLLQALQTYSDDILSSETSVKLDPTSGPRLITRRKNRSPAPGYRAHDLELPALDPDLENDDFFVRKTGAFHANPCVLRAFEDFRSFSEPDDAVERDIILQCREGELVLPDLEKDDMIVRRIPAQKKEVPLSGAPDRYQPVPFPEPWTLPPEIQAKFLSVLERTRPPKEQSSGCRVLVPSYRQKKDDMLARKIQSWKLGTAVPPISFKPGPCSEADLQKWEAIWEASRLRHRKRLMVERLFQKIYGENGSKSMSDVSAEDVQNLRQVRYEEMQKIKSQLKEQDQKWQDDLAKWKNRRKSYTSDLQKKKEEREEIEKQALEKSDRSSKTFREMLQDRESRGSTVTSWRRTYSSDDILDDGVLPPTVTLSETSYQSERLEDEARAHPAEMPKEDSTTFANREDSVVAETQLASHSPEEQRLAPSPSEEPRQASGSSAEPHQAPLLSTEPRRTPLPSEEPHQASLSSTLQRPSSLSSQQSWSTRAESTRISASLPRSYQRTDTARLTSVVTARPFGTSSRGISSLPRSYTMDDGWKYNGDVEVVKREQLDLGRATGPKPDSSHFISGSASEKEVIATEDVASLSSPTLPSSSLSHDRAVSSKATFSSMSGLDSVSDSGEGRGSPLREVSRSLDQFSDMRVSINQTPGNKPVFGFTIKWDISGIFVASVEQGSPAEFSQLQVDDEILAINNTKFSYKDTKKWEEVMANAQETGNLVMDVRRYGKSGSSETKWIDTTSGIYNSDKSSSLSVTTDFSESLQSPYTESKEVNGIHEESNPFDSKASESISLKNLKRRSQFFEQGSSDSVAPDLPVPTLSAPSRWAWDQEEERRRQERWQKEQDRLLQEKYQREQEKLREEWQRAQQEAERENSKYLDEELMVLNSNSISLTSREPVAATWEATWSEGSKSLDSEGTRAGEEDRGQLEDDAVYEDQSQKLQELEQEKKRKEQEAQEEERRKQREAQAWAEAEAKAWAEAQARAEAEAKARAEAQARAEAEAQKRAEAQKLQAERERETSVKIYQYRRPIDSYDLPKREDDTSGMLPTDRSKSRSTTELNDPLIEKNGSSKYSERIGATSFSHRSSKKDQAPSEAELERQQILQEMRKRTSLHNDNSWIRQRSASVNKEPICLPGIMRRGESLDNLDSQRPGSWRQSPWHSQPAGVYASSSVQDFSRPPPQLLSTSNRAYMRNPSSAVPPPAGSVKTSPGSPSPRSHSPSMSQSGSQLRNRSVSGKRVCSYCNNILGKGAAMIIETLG
T1 sequence (Q9Z0U1 whole entry): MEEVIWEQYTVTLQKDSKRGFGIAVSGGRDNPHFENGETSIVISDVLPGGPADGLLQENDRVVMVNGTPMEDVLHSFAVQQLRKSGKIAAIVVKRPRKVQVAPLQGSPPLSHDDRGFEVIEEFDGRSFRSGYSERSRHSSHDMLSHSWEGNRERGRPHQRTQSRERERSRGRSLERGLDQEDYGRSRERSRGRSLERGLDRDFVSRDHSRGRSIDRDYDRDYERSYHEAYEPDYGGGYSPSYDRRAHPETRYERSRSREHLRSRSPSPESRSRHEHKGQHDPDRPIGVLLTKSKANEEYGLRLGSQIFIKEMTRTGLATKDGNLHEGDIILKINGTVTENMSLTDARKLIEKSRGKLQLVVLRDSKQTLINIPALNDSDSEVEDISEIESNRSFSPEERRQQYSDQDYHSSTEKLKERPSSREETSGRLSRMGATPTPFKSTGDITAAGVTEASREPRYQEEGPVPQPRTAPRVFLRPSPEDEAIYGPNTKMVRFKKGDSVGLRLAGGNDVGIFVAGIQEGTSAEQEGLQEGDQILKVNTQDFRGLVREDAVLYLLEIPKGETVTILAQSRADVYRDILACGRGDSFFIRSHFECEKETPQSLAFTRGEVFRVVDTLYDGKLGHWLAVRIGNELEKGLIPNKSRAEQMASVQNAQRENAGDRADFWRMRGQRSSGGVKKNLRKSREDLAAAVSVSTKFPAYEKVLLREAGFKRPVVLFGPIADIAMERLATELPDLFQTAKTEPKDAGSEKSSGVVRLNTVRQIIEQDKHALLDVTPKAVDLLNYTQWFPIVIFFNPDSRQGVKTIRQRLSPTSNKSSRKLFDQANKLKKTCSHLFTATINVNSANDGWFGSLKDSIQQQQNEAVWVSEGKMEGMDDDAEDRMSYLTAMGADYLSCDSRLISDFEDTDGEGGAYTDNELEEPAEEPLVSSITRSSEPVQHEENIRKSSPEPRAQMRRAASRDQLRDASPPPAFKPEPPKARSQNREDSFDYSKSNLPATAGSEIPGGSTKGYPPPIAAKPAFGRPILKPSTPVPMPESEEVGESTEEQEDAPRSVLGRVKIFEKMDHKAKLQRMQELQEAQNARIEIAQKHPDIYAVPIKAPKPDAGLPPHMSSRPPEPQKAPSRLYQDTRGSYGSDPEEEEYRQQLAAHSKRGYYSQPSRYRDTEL

B1: human AID containing two tandem Flag tags (Flag-human AID) (enzyme, UniProt Q9GZX7 1-198, looked up)
chain: MDSLLMNRRKFLYQFKNVRWAKGRRETYLCYVVKRRDSATSFSLDFGYLRNKNGCHVELLFLRYISDWDLDPGRCYRVTWFTSWSPCYDCARHVADFLRGNPNLSLRIFTARLYFCEDRKAEPEGLRRLHRAGVQIAIMTFKDYFYCWNTFVENHERTFKAWEGLHENSVRLSRQLRRILLPLYEVDDLRDAFRTLGL
notes: Stably overexpressed in mouse ES cells (CGR8) from the pHAGE-STEMCCA lentiviral vector; Two constructs (N-terminal or C-terminal 2x Flag) were made; also called AID-Flag protein; not shown: two tandem Flag tags
Turning to B1, the figures for the Nucleus peptide in the assay with Tmpo, with Tip2 and in the assay with Lmo7 were 4 peptides, 16 peptides and 15 peptides, respectively. Also, the Nucleus spectra with Tmpo was found to be 16 spectra; with Tip2, 36 spectra; with Lmo7, 31 spectra.
